# According to PMC11574045, “A cofactor-induced repressive type of transcription factor condensation can be induced by synthetic peptides to suppress tumorigenesis” (The EMBO Journal, 2024):
# B1: TRERF1 (protein, UniProt Q96PN7 1-1200, looked up)
# Transcriptional-regulating …: MGDQQLYKTNHVAHGSENLFYQQPPLGVHSGLNHNYGNAVTGGGMDAPQASPISPHFPQDTRDGLGLPVGSKNLGQMDTSRQGGWGSHAGPGNHVQLRGNLANSNMMWGAPAQAEPTDGYQYTYSQASEIRTQKLTSGVLHKLDSFTQVFANQNLRIQVNNMAQVLHTQSAVMDGAPDSALRQLLSQKPMEPPAPAIPSRYQQVPQQPHPGFTGGLSKPALQVGQHPTQGHLYYDYQQPLAQVPVQGGQPLQAPQMLSQHMQQMQQHQYYPPQQQQQAGQQRISMQEIQTQPQQIRPSQPQPPPQQQQPQQLQLQQRQGSMQIPQYYQPQPMMQHLQEQQQQQMHLQPPSYHRDPHQYTPEQAHTVQLIPLGSMSQYYYQEPQQPYSHPLYQQSHLSQHQQREDSQLKTYSSDRQAQAMLSSHGDLGPPDTGMGDPASSDLTRVSSTLPHRPLLSPSGIHLNNMGPQHQQLSPSAMWPQMHLPDGRAQPGSPESSGQPKGAFGEQFDAKNKLTCSICLKEFKNLPALNGHMRSHGGMRASPNLKQEEGEKVLPPQPQPPLPPPPPPPPPPQLPPEAESLTPMVMPVSVPVKLLPPKPSSQGFTNSTVAAPSARDKPASSMSDDEMPVLEIPRKHQPSVPKAEEPLKTVQEKKKFRHRPEPLFIPPPPSYNPNPAASYSGATLYQSQLRSPRVLGDHLLLDPTHELPPYTPPPMLSPVRQGSGLFSNVLISGHGPGAHPQLPLTPLTPTPRVLLCRSNSIDGSNVTVTPGPGEQTVDVEPRINIGLRFQAEIPELQDISALAQDTHKATLVWKPWPELENHDLQQRVENLLNLCCSSALPGGGTNSEFALHSLFEAKGDVMVALEMLLLRKPVRLKCHPLANYHYAGSDKWTSLERKLFNKALATYSKDFIFVQKMVKSKTVAQCVEYYYTWKKIMRLGRKHRTRLAEIIDDCVTSEEEEELEEEEEEDPEEDRKSTKEEESEVPKSPEPPPVPVLAPTEGPPLQALGQPSGSFICEMPNCGAVFSSRQALNGHARIHGGTNQVTKARGAIPSGKQKPGGTQSGYCSVKSSPSHSTTSGETDPTTIFPCKECGKVFFKIKSRNAHMKTHRQQEEQQRQKAQKAAFAAEMAATIERTTGPVGAPGLLPLDQLSLIKPIKDVDILDDDVVQQLGGVMEEAEVVDTDLLLDDQDSVLLQGDAEL
# B2: TOB1 (protein, UniProt P50616 1-345, looked up)
# Protein Tob1: MQLEIQVALNFIISYLYNKLPRRRVNIFGEELERLLKKKYEGHWYPEKPYKGSGFRCIHIGEKVDPVIEQASKESGLDIDDVRGNLPQDLSVWIDPFEVSYQIGEKGPVKVLYVDDNNENGCELDKEIKNSFNPEAQVFMPISDPASSVSSSPSPPFGHSAAVSPTFMPRSTQPLTFTTATFAATKFGSTKMKNSGRSNKVARTSPINLGLNVNDLLKQKAISSSMHSLYGLGLGSQQQPQQQQQPAQPPPPPPPPQQQQQQKTSALSPNAKEFIFPNMQGQGSSTNGMFPGDSPLNLSPLQYSNAFDVFAAYGGLNEKSFVDGLNFSLNNMQYSNQQFQPVMAN
# B3: TIEG (protein, UniProt Q13118 1-480, looked up)
# Krueppel-like factor 10: MLNFGASLQQTAEERMEMISERPKESMYSWNKTAEKSDFEAVEALMSMSCSWKSDFKKYVENRPVTPVSDLSEEENLLPGTPDFHTIPAFCLTPPYSPSDFEPSQVSNLMAPAPSTVHFKSLSDTAKPHIAAPFKEEEKSPVSAPKLPKAQATSVIRHTADAQLCNHQTCPMKAASILNYQNNSFRRRTHLNVEAARKNIPCAAVSPNRSKCERNTVADVDEKASAALYDFSVPSSETVICRSQPAPVSPQQKSVLVSPPAVSAGGVPPMPVICQMVPLPANNPVVTTVVPSTPPSQPPAVCPPVVFMGTQVPKGAVMFVVPQPVVQSSKPPVVSPNGTRLSPIAPAPGFSPSAAKVTPQIDSSRIRSHICSHPGCGKTYFKSSHLKAHTRTHTGEKPFSCSWKGCERRFARSDELSRHRRTHTGEKKFACPMCDRRFMRSDHLTKHARRHLSAKKLPNWQMEVSKLNDIALPPTPAPTQ
# B4: TOX2 (protein, UniProt Q96NM4 1-488, looked up)
# TOX high mobility group box …: MQQTRTEAVAGAFSRCLGFCGMRLGLLLLARHWCIAGVFPQKFDGDSAYVGMSDGNPELLSTSQTYNGQSENNEDYEIPPITPPNLPEPSLLHLGDHEASYHSLCHGLTPNGLLPAYSYQAMDLPAIMVSNMLAQDSHLLSGQLPTIQEMVHSEVAAYDSGRPGPLLGRPAMLASHMSALSQSQLISQMGIRSSIAHSSPSPPGSKSATPSPSSSTQEEESEVHFKISGEKRPSADPGKKAKNPKKKKKKDPNEPQKPVSAYALFFRDTQAAIKGQNPSATFGDVSKIVASMWDSLGEEQKQSSPDQGETKSTQANPPAKMLPPKQPMYAMPGLASFLTPSDLQAFRSGASPASLARTLGSKSLLPGLSASPPPPPSFPLSPTLHQQLSLPPHAQGALLSPPVSMSPAPQPPVLPTPMALQVQLAMSPSPPGPQDFPHISEFPSSSGSCSPGPSNPTSSGDWDSSYPSGECGISTCSLLPRDKSLYLT
# B5: THRB (protein, UniProt P10828 1-461, looked up)
# Thyroid hormone receptor beta: MTPNSMTENGLTAWDKPKHCPDREHDWKLVGMSEACLHRKSHSERRSTLKNEQSSPHLIQTTWTSSIFHLDHDDVNDQSVSSAQTFQTEEKKCKGYIPSYLDKDELCVVCGDKATGYHYRCITCEGCKGFFRRTIQKNLHPSYSCKYEGKCVIDKVTRNQCQECRFKKCIYVGMATDLVLDDSKRLAKRKLIEENREKRRREELQKSIGHKPEPTDEEWELIKTVTEAHVATNAQGSHWKQKRKFLPEDIGQAPIVNAPEGGKVDLEAFSHFTKIITPAITRVVDFAKKLPMFCELPCEDQIILLKGCCMEIMSLRAAVRYDPESETLTLNGEMAVTRGQLKNGGLGVVSDAIFDLGMSLSSFNLDDTEVALLQAVLLMSSDRPGLACVERIEKYQDSFLLAFEHYINYRKHHVTHFWPKLLMKVTDLRMIGACHASRFLHMKVECPTELFPPLFLEVFED
# B6: TOX (protein, UniProt O94900 1-526, looked up)
# Thymocyte …: MDVRFYPPPAQPAAAPDAPCLGPSPCLDPYYCNKFDGENMYMSMTEPSQDYVPASQSYPGPSLESEDFNIPPITPPSLPDHSLVHLNEVESGYHSLCHPMNHNGLLPFHPQNMDLPEITVSNMLGQDGTLLSNSISVMPDIRNPEGTQYSSHPQMAAMRPRGQPADIRQQPGMMPHGQLTTINQSQLSAQLGLNMGGSNVPHNSPSPPGSKSATPSPSSSVHEDEGDDTSKINGGEKRPASDMGKKPKTPKKKKKKDPNEPQKPVSAYALFFRDTQAAIKGQNPNATFGEVSKIVASMWDGLGEEQKQVYKKKTEAAKKEYLKQLAAYRASLVSKSYSEPVDVKTSQPPQLINSKPSVFHGPSQAHSALYLSSHYHQQPGMNPHLTAMHPSLPRNIAPKPNNQMPVTVSIANMAVSPPPPLQISPPLHQHLNMQQHQPLTMQQPLGNQLPMQVQSALHSPTMQQGFTLQPDYQTIINPTSTAAQVVTQAMEYVRSGCRNPPPQPVDWNNDYCSSGGMQRDKALYLT
# B7: TLE2 (protein, UniProt Q04725 1-743, looked up)
# Transducin-like enhancer …: MYPQGRHPTPLQSGQPFKFSILEICDRIKEEFQFLQAQYHSLKLECEKLASEKTEMQRHYVMYYEMSYGLNIEMHKQAEIVKRLSGICAQIIPFLTQEHQQQVLQAVERAKQVTVGELNSLIGQQLQPLSHHAPPVPLTPRPAGLVGGSATGLLALSGALAAQAQLAAAVKEDRAGVEAEGSRVERAPSRSASPSPPESLVEEERPSGPGGGGKQRADEKEPSGPYESDEDKSDYNLVVDEDQPSEPPSPATTPCGKVPICIPARRDLVDSPASLASSLGSPLPRAKELILNDLPASTPASKSCDSSPPQDASTPGPSSASHLCQLAAKPAPSTDSVALRSPLTLSSPFTTSFSLGSHSTLNGDLSVPSSYVSLHLSPQVSSSVVYGRSPVMAFESHPHLRGSSVSSSLPSIPGGKPAYSFHVSADGQMQPVPFPSDALVGAGIPRHARQLHTLAHGEVVCAVTISGSTQHVYTGGKGCVKVWDVGQPGAKTPVAQLDCLNRDNYIRSCKLLPDGRSLIVGGEASTLSIWDLAAPTPRIKAELTSSAPACYALAVSPDAKVCFSCCSDGNIVVWDLQNQTMVRQFQGHTDGASCIDISDYGTRLWTGGLDNTVRCWDLREGRQLQQHDFSSQIFSLGHCPNQDWLAVGMESSNVEILHVRKPEKYQLHLHESCVLSLKFASCGRWFVSTGKDNLLNAWRTPYGASIFQSKESSSVLSCDISRNNKYIVTGSGDKKATVYEVVY
# System: HEK293FT cells transfected with TF library
# Assay: Screening of TF condensates based on fluorescent puncta
# Format: cell-based
# Settings: Figure 1B numerical data; TF library screen, one value per transcriptional factor
# Procedure, shortened: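 Puncta scoring used automated confocal imaging of fifty random fields per well, after anti-Flag or anti-GAL4 immunofluorescence (Alexa 488) in PFA-fixed cells. HEK293FT cells carried TF library plasmids delivered with PEI (1.6 μg/ml DNA). At 60 h they were switched for 12 h to glucose-containing or glucose-free medium.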
row,Molecule,Z score of condensed fraction
1,B1,-0.901
2,B2,-0.3688
3,B3,1.047
4,B4,2.501
5,B5,-0.3414
6,B6,-0.4918
7,B7,0.1994
